Data set [1] concerns the target STF-1 FPWMK to AAGGQ mutant (UniProt P52947 P52947:1-283, FPWMK to AAGGQ). Description: EMSA; wild-type binding activity. Conditions: label: 32P. On the technique in general: In EMSA bound probe runs differently from free probe, usually more slowly.
For data set [2], the target named is T1, STF-1 (IPF1/IDX-1/PDX1) (UniProt P52947 P52947:1-283). Description: EMSA; high affinity site. Conditions: tags: GST fusion (pGEX3X, E. coli), GST removable by factor Xa; label: 32P.
Data set [3] addresses T2, STF-1 + Pbx1 heterodimer (UniProt P52947;P40424 P52947:1-283,P40424:1-430). Description: EMSA; no heteromeric complex; no synergy in reporter assay. Conditions: tags: STF-1 recombinant from E. coli; Pbx1 in vitro translated in reticulocyte lysate; label: 32P. As to the method:
(§1) Gel mobility shift assays were performed exactly as described previously (20) using 0.1 ng of end-labeled double stranded oligonucleotide whose sequences are presented in FIG. 2C. For off-rate analysis, the TSEII probe was first incubated with the proteins at room temperature for 30 minutes, then a 1000-fold excess of unlabeled TSEII oligonucleotide was added and aliquots were loaded at various time points on a running gel. In supershift assays, TU6 nuclear cell extract was preincubated with 1 µl of Pbx (11) or STF-antiserum (20) for 15 minutes at room temperature before adding the TSEII probe.
To determine whether Pbx and STF-1 can bind cooperatively to other STF-1 target sites besides TSEII, gel shift assays were performed with the recombinant STF-1 and Pbx proteins on the somatostatin TSEI or insulin P and Flat elements, sites which bind STF-1 and which are required for islet cell restricted expression of the rat somatostatin and insulin I genes, respectively, in pancreatic cells (FIG. 2D and FIG. 2E). In contrast to the TSEII element (FIG. 2D, lanes 1–4), no heteromeric STF-1-Pbx complex was observed on the TSEI, P or FLAT elements. Indeed, heteromeric STF-1 complexes are also undetectable when the TSEI, P, or FLAT elements are used in gel shift assays of crude pancreatic cell extracts (data not shown) (20). […]

Data set [4] has as its target T2, STF-1 + Pbx1 heterodimer. Description: EMSA; no heteromeric complex. The note with it: tags: STF-1 recombinant from E. coli; Pbx1 in vitro translated in reticulocyte lysate; label: 32P. As to the method: as §1
(§2) To determine whether Pbx and STF-1 can bind cooperatively to other STF-1 target sites besides TSEII, gel shift assays were performed with the recombinant STF-1 and Pbx proteins on the somatostatin TSEI or insulin P and Flat elements, sites which bind STF-1 and which are required for islet cell restricted expression of the rat somatostatin and insulin I genes, respectively, in pancreatic cells (FIG. 2D and FIG. 2E). In contrast to the TSEII element (FIG. 2D, lanes 1–4), no heteromeric STF-1-Pbx complex was observed on the TSEI, P or FLAT elements. Indeed, heteromeric STF-1 complexes are also undetectable when the TSEI, P, or FLAT elements are used in gel shift assays of crude pancreatic cell extracts (data not shown) (20).

For data set [5], the target named is T1, STF-1 (IPF1/IDX-1/PDX1). Description: EMSA. Conditions: tags: GST fusion (pGEX3X, E. coli), GST removable by factor Xa; label: 32P. The protocol:
as §1, §2

The target in data set [6] is T2, STF-1 + Pbx1 heterodimer. Description: EMSA; minimal effect on cooperativity. The note with it: tags: STF-1 recombinant from E. coli; Pbx1 in vitro translated in reticulocyte lysate; label: 32P. The text has this: Gel mobility shift assay using TSE II oligonucleotide plus STF-1 and/or Pbx as indicated over each lane. TNT, control lysate. […] Off-rate analysis of STF-1 and STF-1 Pbx complexes using somatostatin TSE II oligonucleotide as probe. Time (in minutes) after addition of excess unlabeled TSE II oligo as indicated. Complexes C1 and C2, corresponding to STF-1 monomer and STF-1/PBX heterodimer, respectively, as indicated. […] TSEII, wild-type TSE II oligonucleotide. P and FLAT, insulin I promoter elements which recognize STF-1 with high affinity. TSEI, somatostatin promoter element which binds STF-1. PBX, in vitro translated PBX protein added to binding reactions; STF, full length recombinant STF-1 protein. […] Brackets indicate consensus TAAT motifs which were targeted for mutagenesis. […] Transient transfection assay of GC cells using STF-1 and E2A-Pbx effector plasmids as indicated below each bar. […] Activities were normalized to co-transfected RSV-CAT control plasmid.
Gel mobility shift assays were performed exactly as described previously (20) using 0.1 ng of end-labeled double stranded oligonucleotide whose sequences are presented in FIG. 2C. For off-rate analysis, the TSEII probe was first incubated with the proteins at room temperature for 30 minutes, then a 1000-fold excess of unlabeled TSEII oligonucleotide was added and aliquots were loaded at various time points on a running gel. […]

T2 sequence (P52947 whole entry, chain 1 of 2): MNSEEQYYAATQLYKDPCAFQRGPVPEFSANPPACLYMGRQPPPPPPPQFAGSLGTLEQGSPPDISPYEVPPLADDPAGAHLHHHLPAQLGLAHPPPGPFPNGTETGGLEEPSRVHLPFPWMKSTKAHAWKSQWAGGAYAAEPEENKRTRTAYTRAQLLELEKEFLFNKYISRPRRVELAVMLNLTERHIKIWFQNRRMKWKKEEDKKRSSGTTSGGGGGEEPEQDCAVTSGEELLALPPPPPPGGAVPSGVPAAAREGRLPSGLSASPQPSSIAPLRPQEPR
T2 sequence (P40424 whole entry, chain 2 of 2): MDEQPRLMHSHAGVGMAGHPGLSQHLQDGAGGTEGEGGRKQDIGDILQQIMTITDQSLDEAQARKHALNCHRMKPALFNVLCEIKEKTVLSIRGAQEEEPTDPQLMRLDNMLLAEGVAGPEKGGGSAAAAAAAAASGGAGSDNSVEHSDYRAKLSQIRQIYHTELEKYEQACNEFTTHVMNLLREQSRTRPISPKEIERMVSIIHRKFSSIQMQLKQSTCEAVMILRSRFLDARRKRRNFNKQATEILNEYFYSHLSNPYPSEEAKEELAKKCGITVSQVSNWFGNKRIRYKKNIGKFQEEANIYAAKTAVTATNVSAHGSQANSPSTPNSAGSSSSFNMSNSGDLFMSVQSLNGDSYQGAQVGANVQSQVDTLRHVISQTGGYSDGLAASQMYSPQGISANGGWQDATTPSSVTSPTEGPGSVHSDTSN
T1 sequence (P52947 whole entry, the tested form may be a part, one chain of several): as the sequence (P52947 whole entry, chain 1 of 2) above
Sequence of STF-1 FPWMK to AAGGQ mutant (P52947 other isoform, or with tags, fused parts or gaps FPWMK to AAGGQ | mutant): as the sequence (P52947 whole entry, chain 1 of 2) above, with F119A, P120A, W121G, M122G, K123Q counted along it

B1: insulin I P element (dsDNA)
DNA 1: GATCTAGAGCCCTTAATGGGCCAAA
DNA 2: GATCTTTGGCCCATTAAGGGCTCTA
Consider B1, for which the binding result in data set [1] was “binds”; with STF-1 (IPF1/IDX-1/PDX1) [2] it was “binds”; with STF-1 + Pbx1 heterodimer [3], “no binding”.

B2: somatostatin TSEI (dsDNA)
DNA 1: GATCTTGCGAGGCTAATGGTGCG
DNA 2: GTACCGCACCATTAGCCTCGCAA
With B2, the results for the binding result with STF-1 + Pbx1 heterodimer [4] and with STF-1 (IPF1/IDX-1/PDX1) [5] were “no binding” and “binds”, respectively.

B3: TSEII M3 (dsDNA)
DNA 1: GATCTCAGTAATTATACATGCA
DNA 2: GTACTGCATGTATAATTACTGA
With B3, the binding result with STF-1 + Pbx1 heterodimer [6] is listed as “binds”.
